Data reported in article PMC11328107.
One block for each substance: values may come before it.

What was measured:
PCSK9 (Homo sapiens) = PCSK9 (Homo sapiens) (UniProt Q8NBP7); details: cited from earlier work
[1] = biological target: transferrin receptor 1 (CD71), His‐tagged (UniProt P02786); assay: BLI; Octet N1; His-tagged CD71 immobilised on Ni-NTA tip; HFn-Pep2-8 2.5–1580 nM; PBS with 0.02% Tween 20, 0.1% BSA, 0.05% NaN3; KD from plateau values (steady state)
[2] = biological target: His‐tagged PCSK9 of the CircuLex PCSK9‐LDLR in vitro binding assay kit (UniProt Q8NBP7); assay: ELISA; CircuLex PCSK9-LDLR binding kit; LDLR-AB domain immobilised on the plate; His-tagged PCSK9 70 ng/mL alone or preincubated with HFn-Pep2-8 1–280 nM; 2 h; detected by biotinylated anti-His antibody
His‐tagged PCSK9 of the CircuLex PCSK9‐LDLR in vitro binding assay kit, sequence (Q8NBP7 153-692): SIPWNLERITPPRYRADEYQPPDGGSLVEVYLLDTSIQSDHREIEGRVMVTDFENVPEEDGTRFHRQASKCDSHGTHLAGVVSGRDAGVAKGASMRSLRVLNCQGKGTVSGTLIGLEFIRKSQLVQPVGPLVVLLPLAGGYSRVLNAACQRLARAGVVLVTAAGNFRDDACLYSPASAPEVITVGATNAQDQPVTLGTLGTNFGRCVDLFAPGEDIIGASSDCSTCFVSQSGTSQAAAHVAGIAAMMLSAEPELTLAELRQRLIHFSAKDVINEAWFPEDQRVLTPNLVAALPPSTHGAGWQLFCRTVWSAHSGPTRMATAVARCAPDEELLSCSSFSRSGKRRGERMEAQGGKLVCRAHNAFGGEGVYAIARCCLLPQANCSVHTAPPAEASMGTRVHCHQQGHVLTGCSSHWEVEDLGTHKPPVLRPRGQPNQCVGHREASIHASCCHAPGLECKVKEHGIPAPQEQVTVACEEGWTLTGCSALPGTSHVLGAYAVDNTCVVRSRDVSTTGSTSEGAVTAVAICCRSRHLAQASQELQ

[3] = biological target: proprotein convertase subtilisin/kexin type 9 (PCSK9) (UniProt Q8NBP7)
proprotein convertase subtilisin/kexin type 9 (PCSK9), sequence (Q8NBP7 153-692): as above

[4] = biological target: proprotein convertase subtilisin/kexin type 9 (PCSK9) (UniProt Q8NBP7); remark: listed apart in the source

PCSK9 (Homo sapiens), sequence (Q8NBP7 153-692): as above
transferrin receptor 1 (CD71), His‐tagged, sequence (P02786 whole entry, the tested form may be a part): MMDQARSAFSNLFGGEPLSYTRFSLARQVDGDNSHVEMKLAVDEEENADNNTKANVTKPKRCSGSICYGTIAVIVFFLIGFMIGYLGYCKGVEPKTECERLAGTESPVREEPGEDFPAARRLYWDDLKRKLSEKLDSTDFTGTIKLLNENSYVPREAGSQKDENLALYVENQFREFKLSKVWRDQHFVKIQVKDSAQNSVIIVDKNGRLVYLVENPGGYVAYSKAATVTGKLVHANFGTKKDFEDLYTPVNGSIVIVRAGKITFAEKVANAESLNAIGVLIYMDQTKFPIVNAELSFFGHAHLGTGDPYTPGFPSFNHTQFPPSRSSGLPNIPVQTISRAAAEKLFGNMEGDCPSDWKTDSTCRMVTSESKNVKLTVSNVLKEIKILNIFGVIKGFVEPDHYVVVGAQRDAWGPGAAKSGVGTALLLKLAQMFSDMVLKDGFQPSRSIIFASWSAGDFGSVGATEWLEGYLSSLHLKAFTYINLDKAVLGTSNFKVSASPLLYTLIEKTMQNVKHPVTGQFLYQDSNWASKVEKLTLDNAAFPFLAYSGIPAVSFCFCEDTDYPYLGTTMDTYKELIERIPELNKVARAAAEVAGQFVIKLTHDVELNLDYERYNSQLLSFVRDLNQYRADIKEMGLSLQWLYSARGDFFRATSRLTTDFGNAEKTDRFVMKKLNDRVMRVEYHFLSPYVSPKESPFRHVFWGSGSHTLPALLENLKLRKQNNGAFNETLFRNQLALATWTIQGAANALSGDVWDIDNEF

Substance: Alirocumab
Kd (PCSK9 (Homo sapiens)): 0.52 nM

Kd [1]: 27 nM
Substance: HFn‐Pep2‐8 (human H ferritin with Pep2‐8 and a four‐glycine linker fused to the N‐terminus of each subunit) (designed binder; other documents disagree on this pair)

IC50 [2]: 80.3 nM
Dil-LDL uptake by HepG2 cells (MFI) with 7 μg/mL PCSK9 plus 0.1 μM (81.12%) or 1 μM HFn-Pep2-8; blocks PCSK9 binding to LDLR [3]: 117%
LDLR at the plasma membrane of HepG2 cells (immunofluorescence, MFI) after 8 h with 7 μg/mL PCSK9 plus 0.1 or 1 μM HFn-Pep2-8; blocks PCSK9 binding to LDLR [4]: 90%
Substance: HFn‐Pep2‐8 (human H ferritin with Pep2‐8 and a four‐glycine linker fused to the N‐terminus of each subunit) (designed binder)
